Measurements: publication PMC10815899 (2024)

Assays:
[1] = target: T1, epithelial adhesin 6 of N. glabratus (N. glabratus (endogenous), UniProt Q6FX55 1-715); experiment: BLI
T1 chain: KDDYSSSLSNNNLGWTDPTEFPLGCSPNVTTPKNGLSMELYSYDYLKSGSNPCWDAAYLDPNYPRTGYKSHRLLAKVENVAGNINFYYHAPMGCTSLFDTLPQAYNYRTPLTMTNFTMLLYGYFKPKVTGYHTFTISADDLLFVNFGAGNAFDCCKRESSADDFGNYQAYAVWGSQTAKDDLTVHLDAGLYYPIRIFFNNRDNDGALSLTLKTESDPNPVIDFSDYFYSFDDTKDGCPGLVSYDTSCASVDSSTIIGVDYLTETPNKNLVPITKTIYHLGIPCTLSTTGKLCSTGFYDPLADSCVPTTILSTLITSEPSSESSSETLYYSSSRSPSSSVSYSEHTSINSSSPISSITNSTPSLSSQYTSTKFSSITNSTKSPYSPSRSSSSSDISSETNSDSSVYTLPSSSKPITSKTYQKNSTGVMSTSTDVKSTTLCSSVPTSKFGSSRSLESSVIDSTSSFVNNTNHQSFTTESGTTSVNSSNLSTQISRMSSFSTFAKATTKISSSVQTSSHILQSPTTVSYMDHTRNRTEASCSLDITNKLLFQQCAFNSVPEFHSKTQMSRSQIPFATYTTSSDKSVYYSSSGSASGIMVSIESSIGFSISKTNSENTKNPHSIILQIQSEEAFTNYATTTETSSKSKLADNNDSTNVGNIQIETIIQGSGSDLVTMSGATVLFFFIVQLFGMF

[2] = target: T1, epithelial adhesin 6 of N. glabratus; experiment: BLI
[3] = target: T1, epithelial adhesin 6 of N. glabratus; experiment: SPR

B1: cytoplasmic Nakaseomyces glabratus glyceraldehyde 3-phosphate dehydrogenase (enzyme)
chain: MVRIAINGFGRIGRLVLRVALSRSNIEVVAVNDPFITTDYAAYMFKYDSTHGRYAGEVTHDDKHIIIDGKKIAVHQERDPANLPWGSENIDIAIDSTGVFKELDTAQKHIDAGAKKVVITAPSSTAPMFVVGVNEDKYTSDLKIVSNASCTTNCLAPLAKVIDEAFGIEEGLMTTVHSLTATQKTVDGPSHKDWRGGRTASGNIIPSSTGAAKAVGKVLPQLQGKLTGMAFRVPTVDVSVVDLTVKLQKETTYDEIKKVIKQASEGKLKGVLGYTEDAVVSSDFLGDSRSSIFDASAGIQLSPKFVKLVSWYDNEYGYSTRVVDLVEHVAKN
modifications: biotin (NHS-biotin) in the microplate ligand-binding assays
Kd [1]: 6.89 nM
koff [2]: 0.00195 s⁻¹
koff [3]: 0.000209 s⁻¹
